Patent publication US20160102367A1 (TRUSTEES OF COLUMBIA UNIVERSITY IN THE CITY OF NEW YORK, published 2016)
Non-standard residues stand in square brackets, D forms with d. No end group written: not given here. *: point of attachment. Biotin = O=C1N[C@H]2[C@H](CS[C@H]2CCCCC(=O)*)N1; pY = N[C@@H](Cc1ccc(OP(=O)(O)O)cc1)C(=O)O

How the values were obtained:
Test in all cases: streptavidin-biotin peptide pull down, anti-GST Western blot
GST-SH2-FYN Leu174Arg = target: T1, GST-SH2-FYN Leu174Arg (Homo sapiens (Human), UniProt P06241 148-231)
T1 construct: also called GST-FYN-SH2 L174R; not shown: The N-terminal GST tag and the pGEX4-T1 linker
Method: (§1) GST-tagged FYN SH2 domain proteins were purified by binding them to immobilized glutathione Sepharose beads (Thermo scientific) and eluting them with 50 mM reduced Glutathione, 50 mM Tris, pH 7.4, 150 mM NaCl, 5% glycerol, 5 mM β-mercaptoethanol. Protein expression and purity were assessed by Coomassie staining. Binding assay was performed with Pull-Down Biotinylated Protein-protein Interaction Kit (Thermo scientific) according to the manufacturer's instructions using an amino acid 527-537 FYN biotinylated peptide (biotin-[…])(SEQ ID NO: 1); an amino acid 527-537 pY531 FYN biotinylated peptide (biotin-TEPQpYQPGENL)(SEQ ID NO: 2) and an amino acid 527-537 […] FYN biotinylated peptide (biotin-[…])(SEQ ID NO: 3) (Anaspec Inc). Synthetic biotinylated peptides were incubated with purified GST-FYN SH2 domain, mutant FYN SH2 domain or GST alone for 1 h at 4° C. Interacting proteins were resolved on 10% SDS-polyacrylamide gel electrophoresis (SDS-PAGE) and transferred to a PVDF membrane and subjected to Western blot with an anti-GST antibody.
(§2) In addition, structure model analysis of FYN and FYN mutant proteins further supported this hypothesis. (See FIG. 4C which is a molecular ribbon representation of wild type FYN protein structure showing the positioning of the FYN SH2 domain and the C terminal Tyr531 phosphosite and FIG. 4D which illustrates structure modeling of FYN Tyr531His, FYN Arg176Cys and FYN Leu174Arg mutant proteins.) The interaction between GST-FYN-SH2 recombinant proteins and biotinylated C-terminal FYN peptides encompassing the position Tyr531 was analyzed. In these assays, wild type GST-FYN-SH2 was effectively pulled down with a Tyr531 phosphopeptide, but not with the corresponding unphosphorylated sequence or with a peptide containing a Tyr531His substitution. […]

GST-SH2-FYN Arg176Cys = target: T2, GST-SH2-FYN Arg176Cys (Homo sapiens (Human), UniProt P06241 148-231)
T2 construct: also called GST-FYN-SH2 R176C; not shown: The N-terminal GST tag and the pGEX4-T1 linker
Method: as §1, §2

[1] = target: T3, GST-FYN-SH2 (wild type FYN SH2 domain, codons 148-231, N-terminal GST tag) (UniProt P06241 148-231)
T3 construct: range 148-231; Expressed in E. coli Rosetta 2(DE3) and purified on glutathione Sepharose; also called GST-SH2-FYN; GST-FYN SH2 domain; not shown: N-terminal GST tag from the pGEX4-T1 vector
Method: as §1, §2

T3 sequence (P06241 148-231): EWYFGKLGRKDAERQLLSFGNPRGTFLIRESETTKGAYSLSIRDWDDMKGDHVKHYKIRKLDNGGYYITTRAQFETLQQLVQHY
T2 sequence (P06241 148-231 R176C limits assumed): as the sequence (P06241 148-231) above, with R29C counted along it
T1 sequence (P06241 148-231 L174R limits assumed): as the sequence (P06241 148-231) above, with L27R counted along it

| binding result (GST-SH2-FYN Leu174Arg) | binding result (GST-SH2-FYN Arg176Cys) | binding result [1] | Binder |
| --- | --- | --- | --- |
| no binding | no binding | – | Biotin-TEPQ[pY]QPGENL (Synthetic peptide (Anaspec Inc); also called Tyr531 phosphopeptide; P-Tyr531 FYN C-terminal peptide) [amino acid 527-537 pY531 FYN biotinylated peptide (biotin-TEPQpYQPGENL)] |
| – | – | no binding | Biotin-TEPQHQPGENL (also called mutant Tyr531His FYN C-terminal peptide) [amino acid 527-537 Y51H FYN biotinylated peptide (biotin-TEPQHQPGENL)] |
